Positions of bridges follow the written chain, without caps; N, C: chain ends.
Columns and labels:
[1] = biological target: T1, LRP6 E3E4 (Homo sapiens, UniProt O75581); assay: Biolayer interferometry binding to LRP6 E3E4; details: steady state, read-out: affinity for LRP6 E3E4
T1 construct: construct E3E4 amino acids E631-Q1253 of LPR6; made in house; host or cells: Tni insect cells (baculovirus, secreted)
T1 sequence (O75581 631-1253): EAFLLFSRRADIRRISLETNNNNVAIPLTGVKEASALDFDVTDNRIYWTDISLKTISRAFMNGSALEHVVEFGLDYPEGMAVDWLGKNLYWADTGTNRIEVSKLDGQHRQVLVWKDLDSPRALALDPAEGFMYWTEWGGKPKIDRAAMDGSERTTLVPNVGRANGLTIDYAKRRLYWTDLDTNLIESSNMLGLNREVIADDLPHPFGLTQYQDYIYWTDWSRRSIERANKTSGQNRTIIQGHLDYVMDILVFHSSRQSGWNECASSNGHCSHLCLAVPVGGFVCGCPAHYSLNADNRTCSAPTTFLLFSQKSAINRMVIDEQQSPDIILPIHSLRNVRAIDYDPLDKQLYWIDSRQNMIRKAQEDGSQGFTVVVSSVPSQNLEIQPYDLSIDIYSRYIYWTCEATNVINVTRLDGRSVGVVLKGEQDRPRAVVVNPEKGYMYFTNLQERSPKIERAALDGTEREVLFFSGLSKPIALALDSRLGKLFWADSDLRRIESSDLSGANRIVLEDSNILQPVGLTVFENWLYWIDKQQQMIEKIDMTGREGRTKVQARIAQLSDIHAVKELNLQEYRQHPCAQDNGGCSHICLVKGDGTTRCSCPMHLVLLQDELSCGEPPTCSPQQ
Description: (§1) Binding kinetics were measured by biolayer interferometry using an Octet Red instrument (ForteBio) as previously described (11). Streptavidin (SA) biosensors were loaded with biotinylated hLRP6 in 50 mMTris, pH 8, 300 mM NaCl, 5% (v/v) glycerol, and 0.05% (w/v) Triton X-100. The loaded biosensors were washed in the same buffer before carrying out association and dissociation measurements for the indicated times. The Kd of each interaction was determined using steady state-analysis through the Octet Red software v6.3. Each reported value represents an average of three or more experiments at different concentrations, with a fitted experimental curve for which the square of the correlation coefficient (R^2) is above 0.96.
(§2) The interaction of the different Dkks and sclerostin with various domains of LRP6 was measured using a biolayer interferometry assay (11). Purified receptors contained individual β-propeller-EGF-like units (E1, E2, or E4), two β-propellers (E1E2 or E3E4), or four β-propellers (E1E4))—as follows:
(§3) Human LRP6: construct E1E4-amino acids A20-Q1253 of LPR6; construct E1E2-amino acids A20-E631 of LPR6; construct E3E4 amino acids E631-Q1253 of LPR6; construct E1-amino acids A20-D325 of LPR6; construct E2-amino acids […]-E631 of LPR6; construct E4-T933-Q1253. The individual LRP6 β-propeller E3 could not be expressed.

[2] = biological target: T2, LRP6 E1 (Homo sapiens, UniProt O75581); assay: Biolayer interferometry binding to LRP6 E1
T2 construct: construct E1-amino acids A20-D325 of LPR6; made in house; host or cells: Tni insect cells (baculovirus, secreted)
T2 sequence (O75581 20-325): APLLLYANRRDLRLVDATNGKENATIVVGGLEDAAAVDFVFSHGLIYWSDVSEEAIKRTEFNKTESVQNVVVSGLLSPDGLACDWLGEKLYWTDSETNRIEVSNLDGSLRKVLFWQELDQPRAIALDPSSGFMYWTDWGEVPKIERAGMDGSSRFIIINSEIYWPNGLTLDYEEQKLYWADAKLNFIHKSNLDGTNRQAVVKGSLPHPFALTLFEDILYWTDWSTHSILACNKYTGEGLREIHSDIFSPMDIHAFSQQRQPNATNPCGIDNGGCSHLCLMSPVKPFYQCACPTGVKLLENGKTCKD
Description: as §1, §2, §3

[3] = biological target: T3, LRP6 E1E2 (Homo sapiens, UniProt O75581); assay: Biolayer interferometry binding to LRP6 E1E2; details: steady state, read-out: affinity for LRP6 E1E2
T3 construct: construct E1E2-amino acids A20-E631 of LPR6; made in house; host or cells: Tni insect cells (baculovirus, secreted)
T3 sequence (O75581 20-631): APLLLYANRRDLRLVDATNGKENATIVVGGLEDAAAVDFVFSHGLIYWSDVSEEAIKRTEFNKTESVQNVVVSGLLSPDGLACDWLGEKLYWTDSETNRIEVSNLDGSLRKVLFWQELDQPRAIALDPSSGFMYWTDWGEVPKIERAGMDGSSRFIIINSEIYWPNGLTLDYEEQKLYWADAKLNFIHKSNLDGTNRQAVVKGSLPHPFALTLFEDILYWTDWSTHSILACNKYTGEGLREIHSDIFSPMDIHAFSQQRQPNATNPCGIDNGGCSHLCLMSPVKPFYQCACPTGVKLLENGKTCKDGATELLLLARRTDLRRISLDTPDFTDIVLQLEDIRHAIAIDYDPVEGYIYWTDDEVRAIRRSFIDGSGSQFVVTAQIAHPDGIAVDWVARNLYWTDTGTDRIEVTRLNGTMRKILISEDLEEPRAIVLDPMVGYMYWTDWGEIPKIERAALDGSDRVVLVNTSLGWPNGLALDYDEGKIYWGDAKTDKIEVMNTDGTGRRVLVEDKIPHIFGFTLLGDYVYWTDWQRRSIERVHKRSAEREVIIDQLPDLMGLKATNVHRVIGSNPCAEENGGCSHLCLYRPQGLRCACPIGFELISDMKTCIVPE
Description: as §1, §2, §3

[4] = biological target: T4, LRP6 E4 (Homo sapiens, UniProt O75581); assay: Biolayer interferometry binding to LRP6 E4
T4 construct: construct E4-T933-Q1253; made in house; host or cells: Tni insect cells (baculovirus, secreted)
T4 sequence (O75581 933-1253): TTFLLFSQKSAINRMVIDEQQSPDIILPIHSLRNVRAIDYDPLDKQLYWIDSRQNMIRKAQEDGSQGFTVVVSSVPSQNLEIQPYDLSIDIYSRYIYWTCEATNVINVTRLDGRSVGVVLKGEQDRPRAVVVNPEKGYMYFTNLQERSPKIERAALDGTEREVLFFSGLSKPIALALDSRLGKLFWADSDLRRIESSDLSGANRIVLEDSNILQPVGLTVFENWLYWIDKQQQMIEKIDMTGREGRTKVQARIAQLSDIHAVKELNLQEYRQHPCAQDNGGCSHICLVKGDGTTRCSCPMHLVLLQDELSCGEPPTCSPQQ
Description: as §1, §2, §3

[5] = biological target: T5, LRP6 E2 (Homo sapiens, UniProt O75581); assay: Biolayer interferometry binding to LRP6 E2
T5 construct: construct E2-amino acids D235-E631 of LPR6; made in house; host or cells: Tni insect cells (baculovirus, secreted)
T5 sequence (O75581 325-631 limits assumed): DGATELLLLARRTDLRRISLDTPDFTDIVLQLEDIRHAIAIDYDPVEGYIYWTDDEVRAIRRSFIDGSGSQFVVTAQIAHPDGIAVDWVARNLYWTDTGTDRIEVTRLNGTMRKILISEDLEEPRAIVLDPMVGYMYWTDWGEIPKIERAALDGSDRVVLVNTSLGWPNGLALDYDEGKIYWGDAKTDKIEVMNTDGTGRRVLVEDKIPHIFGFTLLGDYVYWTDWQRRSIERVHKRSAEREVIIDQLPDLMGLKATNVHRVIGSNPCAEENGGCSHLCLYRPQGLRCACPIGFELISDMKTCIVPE
Description: as §1, §2, §3

[6] = test system: LRP6; assay: Competition binding between Dkk1 and other Wnt pathway inhibitors (preloaded Dkk1); parameters: species or system human; details: Dkk1 100 nM preloaded, test ligand 100 nM
Description: FIG. 8. Competition binding between Dkk1 and other Wnt pathway inhibitors. The indicated LRP6 construct was preloaded onto biosensor tips. Dkk1 (100 nM) (or buffer control) and the test ligand (100 nM) were loaded sequentially onto the LRP6 tips. (A) Dkk2 competition with Dkk1. (B) Sclerostin competition with Dkk1. Percent binding in the presence of Dkk1 is shown relative to buffer control.
as §1
To assess whether Dkk1, Dkk2, and sclerostin might bind to the same site on LRP6 E1, Dkk2 or sclerostin binding was measured in the presence of preloaded Dkk1 (100 nM). […]

[7] = biological target: T6, human LRP6 construct E1 (amino acids A20-D325) (human, UniProt O75581 20-325); assay: legend of FIG. 22
T6 construct: range 20-325; In the Fab crystal E1 arose from E1E2 degraded beyond Arg 335; residues Ala20 to Lys324 were traced; also called LRP6 E1; E1 domain
T6 sequence (looked up): T2 sequence (O75581 20-325)
Description: as §1, with “(R²)” for “(R^2)”

[8] = biological target: T7, human LRP6 construct E1E2 (amino acids A20-E631) (human, UniProt O75581 20-631, biotinylated for biolayer interferometry); assay: competition phage ELISA
T7 construct: range 20-631; also called LRP6 E1E2
T7 sequence (looked up): T3 sequence (O75581 20-631)
Description: Peptide affinities were also determined by competition with phage displaying a binding peptide (competition phage ELISA). Serial dilutions of test peptide were mixed with an appropriate (non-saturating) concentration of phage before exposing the mixture to target and allowing it to reach equilibrium. After washing to remove unbound material, bound phage were detected by incubation with anti-M13 antibody-horseradish peroxidase (HRP) conjugate and exposure to a suitable colorometric HRP substrate.
FIG. 7B. These peptides include the “NXI” motif described above. Affinities of the peptides for LRP6 E1E2 were determined by competition phage ELISA (41). […] To understand the detailed interactions of the peptides with LRP6, we determined high-resolution co-crystal structures of the peptides bound to the LRP6 E1 β-propeller.

B1: Dkk2: Dickkopf 2, carrier-free protein from R&D Systems (protein, UniProt Q9UBU2 34-259, looked up)
Dickkopf-related protein 2: KLNSIKSSLGGETPGQAANRSAGMYQGLAFGGSKKGKNLGQAYPCSSDKECEVGRYCHSPHQGSSACMVCRRKKKRCHRDGMCCPSTRCNNGICIPVTESILTPHIPALDGTRHRDRNHGHYSNHDLGWQNLGRPHTKMSHIKGHEGDPCLRSSDCIEGFCCARHFWTKICKPVLHQGEVCTKQRKKGSHGLEIFQRCDCAKGLSCKVWKDATYSSKARLHVCQKI
In the case of B1, the Kd [1] is reported as 38 nM, the “binding to LRP6 E1 (in words)” value [2] is reported as “bind with high affinity” and the Kd [3] is reported as 53 nM. The “binding to LRP6 E4 (in words)” value [4] was “undetectable”, the “binding to LRP6 E2 (in words)” value [5] was “Partial binding” and the “binding to LRP6 in the presence of preloaded Dkk1” value [6] was “inhibited only slightly”.

Ac-CNSIKFCG-NH2 (disulfide 1-7 (inferred), also called Peptide B) [Ac-CNSIKFCG-am (disulfide)]: binds [7].

For Ac-NSNAIKN-NH2 (also called Dkk1 peptide) [Dkk1 7-mer peptide Ac-NSNAIKN-am], the IC50 [8] was 4000 nM.

Source: US20140235820A1, “METHODS AND COMPOSITIONS FOR MODULATING THE Wnt PATHWAY” (Genentech, Inc., priority 2010, published 2014)
